The values below come from IntAct's records for PubMed 21455181.

To fix the notation:
B1: Sharpin (Homo sapiens), Q9H0F6 (parent)
chain: MAPPAGGAAAAASDLGSAAVLLAVHAAVRPLGAGPDAEAQLRRLQLSADPERPGRFRLELLGAGPGAVNLEWPLESVSYTIRGPTQHELQPPPGGPGTLSLHFLNPQEAQRWAVLVRGATVEGQNGSKSNSPPALGPEACPVSLPSPPEASTLKGPPPEADLPRSPGNLTEREELAGSLARAIAGGDEKGAAQVAAVLAQHRVALSVQLQEACFPPGPIRLQVTLEDAASAASAASSAHVALQVHPHCTVAALQEQVFSELGFPPAVQRWVIGRCLCVPERSLASYGVRQDGDPAFLYLLSAPREAPATGPSPQHPQKMDGELGRLFPPSLGLPPGPQPAASSLPSPLQPSWSCPSCTFINAPDRPGCEMCSTQRPCTWDPLAAAST

The variants in this assay derive from B1. The conditions noted are these: with rnf31_human RNF31, Q96EP0.
Chain of rnf31_human RNF31, Q96EP0 (Q96EP0 whole entry): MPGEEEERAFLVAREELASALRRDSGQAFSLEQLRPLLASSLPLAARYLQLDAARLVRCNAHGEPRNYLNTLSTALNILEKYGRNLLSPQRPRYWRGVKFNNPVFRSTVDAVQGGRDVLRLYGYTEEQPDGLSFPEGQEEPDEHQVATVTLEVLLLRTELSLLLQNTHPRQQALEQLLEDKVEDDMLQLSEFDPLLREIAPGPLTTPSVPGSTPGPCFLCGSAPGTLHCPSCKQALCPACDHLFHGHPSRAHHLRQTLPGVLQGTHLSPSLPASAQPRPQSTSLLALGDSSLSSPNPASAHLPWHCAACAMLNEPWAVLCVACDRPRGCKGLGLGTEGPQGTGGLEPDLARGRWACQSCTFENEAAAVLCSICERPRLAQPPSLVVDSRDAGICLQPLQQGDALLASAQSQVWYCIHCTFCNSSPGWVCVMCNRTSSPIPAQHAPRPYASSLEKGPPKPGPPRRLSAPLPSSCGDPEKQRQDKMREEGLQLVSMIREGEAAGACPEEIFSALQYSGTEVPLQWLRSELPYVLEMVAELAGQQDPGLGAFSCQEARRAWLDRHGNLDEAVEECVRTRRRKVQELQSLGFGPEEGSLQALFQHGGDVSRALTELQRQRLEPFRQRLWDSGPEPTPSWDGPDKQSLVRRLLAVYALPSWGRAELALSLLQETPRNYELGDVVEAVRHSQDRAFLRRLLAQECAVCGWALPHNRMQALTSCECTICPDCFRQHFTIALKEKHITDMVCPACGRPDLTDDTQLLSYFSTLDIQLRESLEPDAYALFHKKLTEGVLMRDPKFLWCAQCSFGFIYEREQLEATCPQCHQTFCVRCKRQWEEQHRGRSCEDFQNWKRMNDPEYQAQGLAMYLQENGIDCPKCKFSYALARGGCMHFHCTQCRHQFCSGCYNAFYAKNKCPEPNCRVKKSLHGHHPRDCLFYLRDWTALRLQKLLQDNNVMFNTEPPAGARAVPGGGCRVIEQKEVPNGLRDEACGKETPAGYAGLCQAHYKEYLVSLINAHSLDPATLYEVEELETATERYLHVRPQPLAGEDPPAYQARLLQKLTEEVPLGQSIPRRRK
Take MAPPAGGAAAAASDLGSAAVLLAVHAAVRPLGAGPDAEAQLRRLQLSADPERPGRFRLELLGAGPGAVNLEWPLESVSYTIRGPTQHELQPPPGGPGTLSLHFLNPQEAQRWAVLVRGATVEGQNGSKSNSPPALGPEACPVSLPSPPEASTLKGPPPEADLPRSPGNLTEREELAGSLARAIAGGDEKGAAQVAAVLAQHRVALSVQLQEACFPPGPIRLQVTLEDAASAASAASSAHVALQVHPHCTVAALQEQVFSELGFPPAVQRWVAGRCLCVPERSLASYGVRQDGDPAFLYLLSAPREAPATGPSPQHPQKMDGELGRLFPPSLGLPPGPQPAASSLPSPLQPSWSCPSCTFINAPDRPGCEMCSTQRPCTWDPLAAAST [I272A]: the “effect of a mutation on the interaction” value is given as “disrupting interaction”.
